In the supplement of paper PMC10567573:

B1: WDR88 (parent)
chain: LLTITKAHSNAISNCCFTFSGHFL

Variants of: B1
Experiment: protein stability index of a GFP-peptide fusion (GPS, HEK-293T) (PSI 1-6); higher = more stable
Conditions: c terminus: a fixed tail appended
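Further: lentivirally expressed fusions sorted by FACS into six bins by GFP to DsRed ratio, PSI derived from sequencing read proportions per bin multiplied by bin number.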

Protein stability index: each site, then its substitutions
S13: Q 3.54; W 3.57; N 2.6; V 2.2; Y 2.48; P 3.02; M 3.08; K 2.03; F 3.89; D 2.2
F17: W 1.45; Q 2.58; H 1.42; E 2.35; Y 3.26; I 3.65; A 2.38
K6: W 3.12; V 2.84; E 2.67; A 2.8; I 2.88; T 2.78; D 1.83; Q 2.29; L 3.35; H 3.03
L1: E 1.76; T 3.09; M 1.95; G 1.49; W 3.03; N 2.47; S 1.76
T3: H 2.57; E 2.47; I 2.74; N 3; L 2.37; V 3.68; Q 3.3
N14: P 3.55; Q 1.82; S 2.39; E 2.25; V 2.52; L 4.15; K 2.63; I 3.89
C16: A 3.4; N 4.12; R 1.87; V 1.95; E 2.9; H 2.61; I 2.8
F19: T 2.52; G 2.62; E 1.77; P 1.88; S 2.56; Y 2.82; W 2.32; D 2.38
S9: Y 3.69; Q 3.42; V 4.49; G 2.8; T 2.15; A 3.55; N 3.57; C 1.89; K 2.83
S20: E 2.51
L24: P 2.46; A 2.74; E 1.77; F 3.56; C 2.68; T 2.47
L2: D 1.4; P 2.12; Y 2.1; I 3.28; C 2.18
F23: W 3.34; H 2.91; Q 1.79; M 3.51; V 1.99; S 2.72; D 1.95; P 2.96
T18: P 2.54; G 3.29; V 3.09; I 2.34; E 1.84; M 2.19; H 2.53; F 2.9; A 3.52
A11: H 2.82; F 2.93; P 3.08; W 2.7; M 2.82; V 2.69
N10: T 3.75; D 3.19; V 2.49; F 3.94; S 3.46; K 2.12
A7: Q 3.22; D 1.86; V 2.76; C 2.75; F 2.86; K 2.4; N 2.1; S 2.54
G21: T 3.34; L 2.46; S 3.32; H 2.53; R 1.97
H8: N 2.03; Q 2.24; G 3.56; E 2.27; P 2.35; S 2.6
I12: Y 2.33; R 2.74; N 2.49; G 2.96; L 3.56; V 3.69
I4: R 2.4; P 2.15; Y 2.38; D 3.07; H 2.36; E 1.99; V 3.9; T 2.8
T5: C 2.54; S 3.33; Y 3.34; D 1.65; M 3.85; E 2.58; P 2.98; Q 1.69
H22: G 2.96; C 3.5; I 3.1; N 2.9; L 3.61; D 2.31
C15: K 2.11; R 3.77; W 2.31; G 2.42; P 2.19; D 1.84
